The source of these data is patent publication US20030008857A1, “Photodynamic therapy (PDT) in combination with factors that bind cell surface apoptosis-inducing receptors” (priority 1999, published 2003).

Entries after “also recorded” stand apart in the source; their conditions may differ.

What all share (format): cell-based, human
One data set relates to VEIDase (caspase 6). Description: Protease assay of cell extracts with Ac-VEID-AMC. The note with it: FasL 7.5 ng/ml, 3 hours, Jurkat whole cell extracts. The procedure: (§1) The human Jurkat T cell line containing a neomycin resistance gene was obtained from Dr. Charles Rudin (University of Chicago). Cells were maintained in RPMI 1640 medium containing 10% heat-inactivated fetal calf serum (FCS) with penicillin (100 U/mL), streptomycin (100 μg/mL), 20 mM HEPES, 2 mM L-glutamine and G418 (1 μg/ml) purchased from Gibco BRL (Burlington, Ontario) in a CO2 incubator at 37° C. To elicit apoptosis with PDT, Jurkat cells were incubated with different amounts of liposomally formulated benzoporphyrin derivative monoacid ring A (BPD-MA, verteporfin, QLT PhotoTherapeutics, Inc., Vancouver, Canada) for one hour at 37° C. under light-protected conditions. The culture medium used for experiments was identical to that used for the passage of the cells except that FCS was used at a concentration of 5%. Experiments were conducted either in 6-well culture plates at 5×10^6 cells in a volume of 4 ml per well or in 96-well microtiter plates at 1×10^5 cells per well at 0.2 ml per well. […]
(§2) These sequences are denoted by letter codes for each amino acid. […] The reaction mixture was incubated at 37° C. for 1 (DEVD.AMC) or 24 (VEID.AMC and IETH.AMC) h and fluorescence was measured using an excitation at 380 nm and an emission wavelength of 460 nm with a CytoFluor™ 2350 fluorescent measuring system (Perseptive Biosystems, Burlington, Ont).

In a further data set the test system is caspase-3, -6 and -8. The experiment in a line: Caspase cleavage activity of cell extracts, statements covering DEVD, VEID and IETD peptides together. The procedure: (§3) The human Jurkat T cell line containing a neomycin resistance gene was obtained from Dr. Charles Rudin (University of Chicago). Cells were maintained in RPMI 1640 medium containing 10% heat-inactivated fetal calf serum (FCS) with penicillin (100 U/mL), streptomycin (100 μg/mL), 20 mM HEPES, 2 mM L-glutamine and G418 (1 μg/ml) purchased from Gibco BRL (Burlington, Ontario) in a CO2 incubator at 37° C. To elicit apoptosis with PDT, Jurkat cells were incubated with different amounts of liposomally formulated benzoporphyrin derivative monoacid ring A (BPD-MA, verteporfin, QLT PhotoTherapeutics, Inc., Vancouver, Canada) for one hour at 37° C. under light-protected conditions. The culture medium used for experiments was identical to that used for the passage of the cells except that FCS was used at a concentration of 5%. Experiments were conducted either in 6-well culture plates at 5×10^6 cells in a volume of 4 ml per well or in 96-well microtiter plates at 1×10^5 cells per well at 0.2 ml per well. Cells were irradiated with light of a wavelength of 690 nm delivered at 65-73 mW/sec from light emitting diodes (LED) to achieve a total light dose of 5 J/cm^2. Cells were returned to the incubator until required for analysis.
(§4) FasL and TRAIL as used were recombinant preparations. FasL was obtained from Upstate Biotechnology (Lake Placid NY) and corresponded to amino acids 103-281 of the soluble domain of human FasL. TRAIL was obtained from BIOMOL Research Laboratories (Plymouth Meeting, Pa.) and corresponded to residues 114-281 of the soluble domain of human TRAIL. FasL and TRAIL were usually added immediately following the treatment of cells with PDT, although in one series of experiments these factors were added at 1, 2 or 3 hours post-irradiation.
Whole cell lysates were prepared by washing 1×10^7 cells per sample twice with ice-cold PBS. Cells were disrupted with 1 mL of lysis buffer [1% Nonidet P-40 detergent (NP-40), 20 mM Tris-HCl, pH 8.0, 137 mM NaCl, 10% glycerol, 1 mM phenylmethylsulfonyl fluoride (PMSF) aprotinln (0.15 U/mL) and 1 mM sodium orthovanadate] for 20 minutes on ice. Lysates were centrifuged for 10 minutes at 15,800×g at 4° C.
These sequences are denoted by letter codes for each amino acid. To evaluate relative DEVDase (caspases 3 and 7), VEIDase (caspase 6) and IETDase (caspase 8) cleavage activity, Jurkat cell lysates were incubated with caspase-specific fluorescent substrates as described by Granville et al. (“Photodynamic therapy induces caspase-3 activation in HL-60 cells”, Cell Death Differ., 4, 623-629 (1997)). Briefly, lysates were incubated with reaction buffer (20 mM Tris pH 7.5, 137 mM NaCl, 1% NP-40, 10% glycerol) containing 100 μM of the caspase substrates Ac-DEVD-AMC (Calbiochem, Cambridge, Mass.), Ac-VEID-AMC (Calbiochem, Cambridge, Mass.), Ac-lETD-AMC (BIOMOL, Plymouth Meeting Pa.), and Ac-LEHD-AMC (Calbiochem, Cambridge, Mass.). The letter codes for the amino acid residues present within the inhibitor peptides are as following: D=aspartic acid; E=glutamic acid; H=histidine; I=isoleucine; T=threonine; V=valine. The reaction mixture was incubated at 37° C. for 1 (DEVD.AMC) or 24 (VEID.AMC and IETH.AMC) h and fluorescence was measured using an excitation at 380 nm and an emission wavelength of 460 nm with a CytoFluor™ 2350 fluorescent measuring system (Perseptive Biosystems, Burlington, Ont).

For data set [1], the system named is caspase-3, -6, -8 and -9 and PARP. Description: Western immunoblot of caspase processing and PARP cleavage in Jurkat cells. The note with it: 3 hours. The procedure: as §3
(§5) FasL and TRAIL as used were recombinant preparations. […]
On the technique in general: In western blotting, separated proteins are transferred to a membrane and probed.

The subject of another data set is IETDase (caspase 8). The experiment in a line: Protease assay of cell extracts with Ac-IETD-AMC. The note with it: FasL 7.5 ng/ml, 3 hours, Jurkat whole cell extracts. Here is the method:
as §1, §2

Data set [2] relates to DEVDase (caspases 3 and 7). Description: Protease assay of cell extracts with Ac-DEVD-AMC. The note with it: FasL 7.5 ng/ml, 3 hours, Jurkat whole cell extracts. Here is the method:
as §1, §2

The next data set relates to cytochrome c. Description: Cytochrome c in cytosolic extracts of Jurkat cells (immunoblot). The note with it: 3 hours. Here is the method: as §3, §5
The next data set concerns Jurkat T cells. The experiment in a line: DNA fragmentation (sub-diploid DNA) by PI staining and flow cytometry. Here is the method:
as §3, §4
The proportion of cells containing sub-diploid levels of DNA 24 hours following treatment was determined using a propidium iodide (“PI”) fluorescence analysis procedure as described by Telford et al. (“Rapid Quantitation of Apoptosis in Pure and Heterogeneous Cell Populations Using Flow Cytometry” J. Immunol Methods 172:1-6 (1994)) or by Darzynkieicz et al. (“Features of Apoptotic Cells Measured by Flow Cytometry”, Cytometry, 13:795-808 (1992)).
Twenty four hours following PDT, 5×10^5 cells were washed twice with ice-cold PBS and then permeablized and fixed in 80% ethanol at 4° C. for one hour. The cells were again washed in ice-cold PBS and stained with PI (50 μg/mL) in PBS with simultaneous deoxyribose nuclease-free ribonuclease A (5 U/mL) treatment. These samples were analyzed by flow cytometry. The percentage of apoptotic cells was calculated using single color analysis for PI fluorescence with a Coulter XL flow cytometer (Coulter Electronics, Inc., Hialeah, Fla.). […] The degree of separation between the apoptotic population and the G0/G1 peak is readily apparent and the percentage of apoptotic cells is determined from the subsequent histogram.
On the technique in general: Flow cytometry measures light scatter and fluorescence of single cells or particles in a stream.

The mark [3] stands for this setting: FasL 7.5 ng/ml or TRAIL 20 ng/ml.

B1: FasL: recombinant, amino acids 103-281 of the soluble domain of human FasL (Upstate Biotechnology) (protein, UniProt P48023 103-281, looked up, fragment)
chain: QLFHLQKELAELRESTSQMHTASSLEKQIGHPSPPPEKKELRKVAHLTGKSNSRSMPLEWEDTYGIVLLSGVKYKKGGLVINETGLYFVYSKVYFRGQSCNNLPLSHKVYMRNSKYPQDLVMMEGKMMSYCTTGQMWARSSYLGAVFNLTSADHLYVNVSELSLVNFEESQTFFGLYKL
For the molecule B1, in the data set on VEIDase (caspase 6), the “increase in VEIDase-like cleavage activity versus control cells” value was “approximately two-fold”. Also, in the data set on caspase-3, -6 and -8 (FIG. 7: factor combined with PDT (verteporfin 5 ng/ml, 5 J/cm^2), 3 hours), the “caspase activity compared with the treatments given independently” value was “higher caspase activity”. The “protease activity on DEVD, VEID and IETD peptides, single treatment” value in the data set with caspase-3, -6 and -8 (FIG. 7: verteporfin 5 ng/ml with light, FasL 7.5 ng/ml or TRAIL 20 ng/ml alone, 3 hours) is “modestly increased”. Besides, the “nature of the combined effect on caspase cleavage activity” value in the data set with caspase-3, -6 and -8 (FasL 7.5 ng/ml plus PDT at verteporfin 5 ng/ml) is listed as “greater than additive effect”. Moreover, the “caspase cleavage activity levels relative to PDT or FasL applied independently” value with caspase-3, -6 and -8 (FasL 7.5 ng/ml plus PDT at verteporfin 5 ng/ml, 3 hours) is given as 2-5 fold. In addition, the “protease activity compared with FasL or TRAIL alone” value in the data set on caspase-3, -6 and -8 (factor plus verteporfin in the absence of light irradiation) is given as “no different”. Moreover, the “caspase processing and PARP degradation compared with PDT or the factor alone” value in data set [1] (FasL 7.5 ng/ml or TRAIL 20 ng/ml combined with verteporfin PDT) was “more extensive caspase processing and PARP degradation; also recorded: a higher degree of processing”. Besides, in data set [1] (setting [3]), the “processing of caspases and PARP by the factor alone” value was “little or no processing; also recorded: little detectable processing”. The “increase in IETDase-like activity versus control cells” value with IETDase (caspase 8) is “one-and-half fold”. The “increase in DEVDase-like cleavage activity versus control cells” value in data set [2] is on record as “approximately two-fold”. Further, the “cytochrome c in cytosolic extracts, factor alone” value in the data set with cytochrome c (setting [3]) is listed as “background levels of cytochrome c”. For the same molecule, the “cytochrome c in cytosolic extracts, factor with PDT” value with cytochrome c (PDT in combination with TRAIL 20 ng/ml or FasL 7.5 ng/ml) was “readily detectable amounts of cytochrome c”. In the data set on Jurkat T cells (FasL 7.5 ng/ml added after PDT with verteporfin 2 ng/ml, 5 J/cm^2, 24 hours), the “increase in proportion of cells with sub-diploid DNA versus light-treated control cells” value was “twelve-fold”. The “increase in the number of cells displaying DNA fragmentation” value in the data set on Jurkat T cells (FasL 7.5 ng/ml by itself, 24 hours (FIG. 2)) is recorded as “seven-fold”. For the same molecule, the “cells with induced DNA fragmentation” value in the data set on Jurkat T cells (FasL 200 ng/ml, within 24 hours) is reported as “approximately 60%”. In the data set with Jurkat T cells (TRAIL 20 ng/ml or FasL 7.5 ng/ml added after PDT with verteporfin 0.5 and 1 ng/ml), the “proportion of cells with sub-diploid DNA compared with PDT alone” value is given as “a greater proportion of cells contained a sub-diploid level of DNA”. Besides, the “DNA fragmentation induced by the factor without PDT across addition times” value in the data set with Jurkat T cells (added at 5 minutes, 1, 2 or 3 hours, FasL 7.5 ng/ml, TRAIL 20 ng/ml, individually or in combination) was “a comparable level of DNA fragmentation”. The “change of the combined effect with PDT on DNA fragmentation” value with Jurkat T cells (factor added at 3 hours post-PDT (verteporfin 2 ng/ml)) is listed as “a modest decline”. Moreover, the “capacity to accentuate PDT-mediated apoptosis (DNA fragmentation)” value in the data set on Jurkat T cells (factor added up to 3 hours after PDT (verteporfin 2 ng/ml), FasL 7.5 ng/ml, TRAIL 20 ng/ml) is “still demonstrable”.
